The values that follow come from patent US20220363718A1 (Bicycle, published 2022).

The target of assay [1] is TSLP (as used in the human PBMC assay) (UniProt Q969D9 29-159). Put plainly: cell-based or functional assay.
A further assay concerns the target T1, Biotinylated human TSLP (human, biotinylated).
T1 construct: also called hTSLP; thymic stromal lymphopoietin
Put plainly: SPR, biotinylated hTSLP on streptavidin chip.

*1 amine or outer side, *2 acyl side, *3 side chain or, on linkers, in order; H or OH if unused. Bridges are numbered along the chain shown (N, C = ends). Where no end group is shown, it is not given here. [ ]: non-standard residue; d: D form. TATA = O=C(CC[*:1])N1CN(C(=O)CC[*:2])CN(C(=O)CC[*:3])C1; Trp(1-Me) = Cn1cc(C[C@H](N)C(=O)O)c2ccccc21; Arg(Me2a) = CN(C)C(=N)NCCC[C@H](N)C(=O)O; Lys(Me3) = C[N+](C)(C)CCCC[C@H](N)C(=O)O; Phe(4-F) = N[C@@H](Cc1ccc(F)cc1)C(=O)O; 1Nal = N[C@@H](Cc1cccc2ccccc12)C(=O)O; Ala(cPr) = N[C@@H](CC1CC1)C(=O)O; tBuAla = CC(C)(C)C[C@H](N)C(=O)O; NMeA = CN[C@@H](C)C(=O)O Bounds are passed on as bounds.

T1 sequence (chain, as listed by the source limits assumed): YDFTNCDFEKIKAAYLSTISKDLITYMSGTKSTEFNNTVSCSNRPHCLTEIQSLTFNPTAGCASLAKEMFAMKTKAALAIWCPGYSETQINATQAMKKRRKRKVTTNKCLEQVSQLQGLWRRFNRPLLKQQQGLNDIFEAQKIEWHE

As to CQWLEDCWRGXC (not fully specified; Ac-CQWLEDCWRG[4F3ClPhe]C; 3 Cys cyclised with TATA) [Example 8], the “CCL17 % Inhibition @ 10 µM, 50 pM TSLP” value in assay [1] worked out at 71%.
Regarding Ac-C[NMeA][Trp(1-Me)][tBuAla]QDC[Trp(1-Me)][Arg(Me2a)]G[Phe(4-F)]C (linker 1-7-12 via TATA) [Example 18], in assay [1], the “CCL17 % Inhibition @ 10 µM, 50 pM TSLP” value came out at 89%.
CQWLEDCWRGXC (not fully specified; Ac-CQWLEDCWRG[3,4diFPhe]C; 3 Cys cyclised with TATA) [Example 22]: the “CCL17 % Inhibition @ 10 µM, 50 pM TSLP” value in assay [1] came out at 41%.
As to CQWLEDCWRGXC (not fully specified; Ac-CQWLEDCWRG[Nal1]C; 3 Cys cyclised with TATA) [Example 47], in assay [1], the “CCL17 % Inhibition @ 10 µM, 666 pM TSLP” value was -7%.
Take CQXLEDCWRGXC (not fully specified; Ac-CQ[Nal1]LEDCWRG[4-FPhe]C; 3 Cys cyclised with TATA) [Example 27]: the “CCL17 % Inhibition @ 10 µM, 666 pM TSLP” value in assay [1] is 33%.
Regarding ACQWLEDCWRGFCADGDML (linker 2-8-13 via TATA) [Example 42], in assay [1], the “CCL17 % Inhibition @ 10 µM, 50 pM TSLP” value is under 20% and the “CCL17 % Inhibition @ 10 µM, 666 pM TSLP” value is 47%.

B1: Example 80 (peptide)
peptide: Ac-CQW[Ala(cPr)]EDCWRGFC
modifications: linker 1-7-12 via TATA; not fully specified (C-terminus); printed as CQW[CproA]EDCWRGFC
In general, Kd refers to the free concentration of one partner at which half of the binding sites on the other are occupied at equilibrium, for simple one-to-one binding. As for B1, the Kd with Biotinylated human TSLP came out at 100 nM.
Take SHVCRDLDPWTCDSWWLCA (linker 4-12-18 via TATA) [Example 188]: the “CCL17 % Inhibition @ 10 µM, 666 pM TSLP” value in assay [1] is -4%.
On the same count and under the same terms, next, CQWLEDCWRGXC (not fully specified; Ac-CQWLEDCWRG[3-ClPhe]C; 3 Cys cyclised with TATA) [Example 32]: 14%; ACRDLDPWTCSSWWLCANV (linker 2-10-16 via TATA) [Example 186]: -1%.
Ac-CQWLEDCWRGFC (linker 1-7-12 via TATA) [Example 79]: the “CCL17 % Inhibition @ 10 µM, 666 pM TSLP” value in assay [1] is -18%.
With ACTWLDDCWRGFCA (linker 2-8-13 via TATA), in the assay with Biotinylated human TSLP, the Kd came out at 93 nM.
Consider ACRDLDPWTCSSWWLCA (linker 2-10-16 via TATA; not fully specified (C-terminus)) [Example 164], for which the “CCL17 % Inhibition @ 10 µM, 666 pM TSLP” value in assay [1] was determined as 0%.
Turning to ACQWLEDCWRGFCA (linker 2-8-13 via TATA) [Example 68], the “CCL17 % Inhibition @ 10 µM, 666 pM TSLP” value in assay [1] came out at 33%.
As to SPPCVWLDDCWRGFCA (linker 4-10-15 via TATA) [Example 73], in assay [1], the “CCL17 % Inhibition @ 10 µM, 666 pM TSLP” value is -11%.
RAPCPDLDPWTCSDWWLCA (linker 4-12-18 via TATA) [Example 187]: the “CCL17 % Inhibition @ 10 µM, 666 pM TSLP” value in assay [1] turned out to be 11%.
For AHPCADLDPWTCPNWWLCA (linker 4-12-18 via TATA; not fully specified (C-terminus)) [Example 165], the “CCL17 % Inhibition @ 10 µM, 666 pM TSLP” value in assay [1] was 33%.
Regarding Ac-C[NMeA][1Nal][tBuAla]QDC[Trp(1-Me)][Arg(Me2a)]G[Phe(4-F)]C[dA] (linker 1-7-12 via TATA; not fully specified (C-terminus)) [Example 29], in assay [1], the “CCL17 % Inhibition @ 10 µM, 50 pM TSLP” value turned out to be 61% and the “CCL17 % Inhibition @ 10 µM, 400 pM TSLP” value was 62%.
Turning to ACTWLDDCWRGFCA (linker 2-8-13 via TATA; not fully specified (C-terminus)), in assay [1], the “CCL17 % Inhibition @ 10 µM, 666 pM TSLP” value amounted to 0%.
CQWLEDCWRGXC (not fully specified; Ac-CQWLEDCWRG[3-MePhe]C; 3 Cys cyclised with TATA) [Example 74]: in assay [1], the “CCL17 % Inhibition @ 10 µM, 666 pM TSLP” value was 43%.
ACQWLEDCWRGFCSSSDQS (linker 2-8-13 via TATA) [Example 59]: the “CCL17 % Inhibition @ 10 µM, 666 pM TSLP” value in assay [1] came to 2%.
On to CQWLEDCWRGXC (not fully specified; Ac-CQWLEDCWRG[Nal2]C; 3 Cys cyclised with TATA) [Example 50], for which the “CCL17 % Inhibition @ 10 µM, 666 pM TSLP” value in assay [1] stood at 33%.
Regarding YATTQVCRDLDPWTCSSWWLCA (linker 7-15-21 via TATA) [Example 171], the “CCL17 % Inhibition @ 10 µM, 666 pM TSLP” value in assay [1] worked out at 36%.
Same read-out and setting: next, ACHWLEDCWRGFCHLE (linker 2-8-13 via TATA; not fully specified (C-terminus)) [Example 75]: -2%.
For the molecule Ac-CQWLEDCW[Lys(Me3)]GFC (linker 1-7-12 via TATA; not fully specified (C-terminus)) [Example 81], in the assay with Biotinylated human TSLP, the Kd turned out to be 100 nM.

B2: Example 44 (peptide)
peptide: Ac-CQW[tBuAla]EDCWRGFC
modifications: linker 1-7-12 via TATA; not fully specified (C-terminus); printed as Ac-CQW[tBuA]EDCWRGFC
Regarding B2, the “CCL17 % Inhibition @ 10 µM, 666 pM TSLP” value in assay [1] came to 52%.
For the molecule Ac-ACQWLEDCWRGFCPLD (linker 2-8-13 via TATA) [Example 53], the “CCL17 % Inhibition @ 10 µM, 666 pM TSLP” value in assay [1] was -2%.
On to GTDSAECQWLEDCWRGFCA (linker 7-13-18 via TATA) [Example 45], for which the “CCL17 % Inhibition @ 10 µM, 666 pM TSLP” value in assay [1] was determined as 0%.
Turning to TMEYRDCQWLEDCWRGFCA (linker 7-13-18 via TATA) [Example 56], the “CCL17 % Inhibition @ 10 µM, 666 pM TSLP” value in assay [1] is 40%.
On to ACTWLEDCWRGFCADS (linker 2-8-13 via TATA) [Example 63], for which the “CCL17 % Inhibition @ 10 µM, 666 pM TSLP” value in assay [1] stood at 24%.
As to CQWXEDCWRGXC (not fully specified; Ac-CQW[tBuA]EDCWRG[4-FPhe]C; 3 Cys cyclised with TATA) [Example 4], the “CCL17 % Inhibition @ 10 µM, 50 pM TSLP” value in assay [1] was found to be 47%.
On to CQWLEDCWRGXC (not fully specified; Ac-CQWLEDCWRG[4-FPhe]C; 3 Cys cyclised with TATA) [Example 17], for which the “CCL17 % Inhibition @ 10 µM, 50 pM TSLP” value in assay [1] amounted to 1%.
Still for that read-out and setting: then Ac-C[NMeA][1Nal][tBuAla]QDC[Trp(1-Me)][Arg(Me2a)]G[Phe(4-F)]C (linker 1-7-12 via TATA; not fully specified (C-terminus)) [Example 25], with 71%.
Turning to CQWLEDCWRGXC (N-term acetyl; CQWLEDCWRG[4-CF3Phe]C as printed; 3 Cys on TATA) [Example 77], in the assay with Biotinylated human TSLP, the Kd worked out at 93 nM.
